The record followed here is article PMC4521584, “MutS/MutL crystal structure reveals that the MutS sliding clamp loads MutL onto DNA”.

Positions count from the first letter of the chain named.

The target in one data set is MutLLN40 N131C (UniProt P23367 1-349, N131C). Put plainly: SPR; 1 mM ATP, 150 mM KCl; SPR: 25 mM Hepes pH 7.5, 150 mM KCl, 5 mM MgCl2, 1 mM DTT, 0.05% Tween-20, 1 mM ATP (+20% glycerol for MutL-MutS assay); FP: same but 50 mM KCl, no ATP (+10% glycerol for full-length MutL); stopped-flow: 150 mM KCl, 10 uM ADP +/- 1 mM ATP, 15 C; FRET: 25 mM Hepes pH 7.2, 150 mM KCl, 5 mM MgCl2. The settings on record: protein: recombinant; tags: His; label: biotin at one end (immobilized), fluorescein at the other; blunt, one G:T mismatch. Background: Surface plasmon resonance follows binding to a sensor surface in real time, without labels.

For data set [1], the target named is T1, MutSΔC800 D246C (UniProt P23909 1-800, D246C).
T1 sequence: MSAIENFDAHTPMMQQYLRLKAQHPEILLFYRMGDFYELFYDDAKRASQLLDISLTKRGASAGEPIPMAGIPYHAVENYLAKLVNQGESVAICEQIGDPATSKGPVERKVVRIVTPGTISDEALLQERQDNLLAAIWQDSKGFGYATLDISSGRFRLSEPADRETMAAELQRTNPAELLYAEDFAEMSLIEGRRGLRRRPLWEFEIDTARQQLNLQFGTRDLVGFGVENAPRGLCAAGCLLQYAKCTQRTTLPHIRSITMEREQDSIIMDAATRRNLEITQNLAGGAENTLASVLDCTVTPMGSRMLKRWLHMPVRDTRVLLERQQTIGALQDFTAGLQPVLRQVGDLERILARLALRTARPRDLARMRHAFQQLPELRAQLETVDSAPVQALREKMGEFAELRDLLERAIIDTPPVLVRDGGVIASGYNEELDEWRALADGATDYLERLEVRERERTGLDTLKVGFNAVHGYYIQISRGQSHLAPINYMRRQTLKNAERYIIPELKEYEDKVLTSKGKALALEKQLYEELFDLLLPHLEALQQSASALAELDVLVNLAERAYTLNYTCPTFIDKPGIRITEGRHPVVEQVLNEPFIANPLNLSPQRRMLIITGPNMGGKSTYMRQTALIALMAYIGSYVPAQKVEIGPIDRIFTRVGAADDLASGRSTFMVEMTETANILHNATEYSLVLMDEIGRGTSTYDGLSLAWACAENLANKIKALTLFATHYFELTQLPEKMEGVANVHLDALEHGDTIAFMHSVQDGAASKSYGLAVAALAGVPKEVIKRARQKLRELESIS
Nature of the data set: SPR; 1 mM ATP, 150 mM KCl; fast off-rate; SPR: 25 mM Hepes pH 7.5, 150 mM KCl, 5 mM MgCl2, 1 mM DTT, 0.05% Tween-20, 1 mM ATP (+20% glycerol for MutL-MutS assay); FP: same but 50 mM KCl, no ATP (+10% glycerol for full-length MutL); stopped-flow: 150 mM KCl, 10 uM ADP +/- 1 mM ATP, 15 C; FRET: 25 mM Hepes pH 7.2, 150 mM KCl, 5 mM MgCl2. The settings on record: protein: recombinant; chain copies: 2; label: biotin at one end (immobilized), fluorescein at the other; blunt, one G:T mismatch.

For a further data set, the target named is MutS WT;MutL WT (Escherichia coli?;Escherichia coli?, UniProt P23909;P23367 1-853;1-615, |). Nature of the data set: SPR; 1 mM ATP, end-blocked; MutL binds preformed MutS clamp; SPR: 25 mM Hepes pH 7.5, 150 mM KCl, 5 mM MgCl2, 1 mM DTT, 0.05% Tween-20, 1 mM ATP (+20% glycerol for MutL-MutS assay); FP: same but 50 mM KCl, no ATP (+10% glycerol for full-length MutL); stopped-flow: 150 mM KCl, 10 uM ADP +/- 1 mM ATP, 15 C; FRET: 25 mM Hepes pH 7.2, 150 mM KCl, 5 mM MgCl2. The settings on record: protein: recombinant;recombinant; tags: ;His6; chain copies: 2;2; label: biotin at one end (immobilized), fluorescein at the other; blunt, one G:T mismatch.

Another data set has as its target T2, MutS WT (UniProt P23909 1-853).
T2 sequence: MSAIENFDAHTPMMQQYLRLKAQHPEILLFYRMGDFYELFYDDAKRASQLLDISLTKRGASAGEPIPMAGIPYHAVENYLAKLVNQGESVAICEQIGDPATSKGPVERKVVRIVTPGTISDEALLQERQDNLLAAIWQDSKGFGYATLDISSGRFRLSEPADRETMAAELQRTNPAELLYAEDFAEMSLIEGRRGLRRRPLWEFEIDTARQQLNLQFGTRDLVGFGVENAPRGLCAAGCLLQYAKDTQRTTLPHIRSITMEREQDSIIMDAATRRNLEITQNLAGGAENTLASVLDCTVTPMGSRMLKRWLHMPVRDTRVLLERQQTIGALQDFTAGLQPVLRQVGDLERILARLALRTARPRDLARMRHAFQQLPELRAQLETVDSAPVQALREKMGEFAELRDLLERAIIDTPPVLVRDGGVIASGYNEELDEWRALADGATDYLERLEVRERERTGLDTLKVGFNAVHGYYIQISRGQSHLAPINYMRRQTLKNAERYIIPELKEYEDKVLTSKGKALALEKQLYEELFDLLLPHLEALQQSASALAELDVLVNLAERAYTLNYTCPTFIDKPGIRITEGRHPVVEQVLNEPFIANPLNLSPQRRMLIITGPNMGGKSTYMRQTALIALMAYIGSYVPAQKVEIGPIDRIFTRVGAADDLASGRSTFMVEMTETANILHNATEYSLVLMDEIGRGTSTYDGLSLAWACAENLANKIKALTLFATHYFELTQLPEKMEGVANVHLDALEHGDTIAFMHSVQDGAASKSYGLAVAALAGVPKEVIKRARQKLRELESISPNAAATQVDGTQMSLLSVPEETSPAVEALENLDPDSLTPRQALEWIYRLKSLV
Put plainly: SPR; 1 mM ATP, end-blocked with anti-fluorescein Fab; sliding clamp; SPR: 25 mM Hepes pH 7.5, 150 mM KCl, 5 mM MgCl2, 1 mM DTT, 0.05% Tween-20, 1 mM ATP (+20% glycerol for MutL-MutS assay); FP: same but 50 mM KCl, no ATP (+10% glycerol for full-length MutL); stopped-flow: 150 mM KCl, 10 uM ADP +/- 1 mM ATP, 15 C; FRET: 25 mM Hepes pH 7.2, 150 mM KCl, 5 mM MgCl2. Particulars: protein: recombinant; chain copies: 2; label: biotin at one end (immobilized), fluorescein at the other; blunt, one G:T mismatch.

In data set [2] the target is T1, MutSΔC800 D246C. Put plainly: stopped-flow FRET and FP; 10 uM ADP, no ATP; binding with kinking; SPR: 25 mM Hepes pH 7.5, 150 mM KCl, 5 mM MgCl2, 1 mM DTT, 0.05% Tween-20, 1 mM ATP (+20% glycerol for MutL-MutS assay); FP: same but 50 mM KCl, no ATP (+10% glycerol for full-length MutL); stopped-flow: 150 mM KCl, 10 uM ADP +/- 1 mM ATP, 15 C; FRET: 25 mM Hepes pH 7.2, 150 mM KCl, 5 mM MgCl2. The settings on record: protein: recombinant; chain copies: 2; label: FRET: Alexa Fluor 594 on top T11 and Alexa Fluor 488 on bottom T10; FP: 5' TAMRA on top; blunt, one G:T mismatch.

In another data set the target is MutSΔC800 D246C;MutL WT (Escherichia coli?;Escherichia coli?, UniProt P23909;P23367 1-800;1-615, D246C|). Nature of the data set: stopped-flow FRET and FP; 400 nM MutL mixed, 1 mM ATP; more binding at equilibrium than MutSΔC800 alone; SPR: 25 mM Hepes pH 7.5, 150 mM KCl, 5 mM MgCl2, 1 mM DTT, 0.05% Tween-20, 1 mM ATP (+20% glycerol for MutL-MutS assay); FP: same but 50 mM KCl, no ATP (+10% glycerol for full-length MutL); stopped-flow: 150 mM KCl, 10 uM ADP +/- 1 mM ATP, 15 C; FRET: 25 mM Hepes pH 7.2, 150 mM KCl, 5 mM MgCl2. Particulars: protein: recombinant;recombinant; tags: ;His6; chain copies: 2;2; label: FRET: Alexa Fluor 594 on top T11 and Alexa Fluor 488 on bottom T10; FP: 5' TAMRA on top; blunt, one G:T mismatch.

The target in data set [3] is T1, MutSΔC800 D246C. Nature of the data set: SPR; 1 mM ATP; fitted maximum response 104 RU; SPR: 25 mM Hepes pH 7.5, 150 mM KCl, 5 mM MgCl2, 1 mM DTT, 0.05% Tween-20, 1 mM ATP (+20% glycerol for MutL-MutS assay); FP: same but 50 mM KCl, no ATP (+10% glycerol for full-length MutL); stopped-flow: 150 mM KCl, 10 uM ADP +/- 1 mM ATP, 15 C; FRET: 25 mM Hepes pH 7.2, 150 mM KCl, 5 mM MgCl2. The settings on record: protein: recombinant; chain copies: 2; label: immobilized for SPR; blunt, one G:T mismatch.

For data set [4], the target named is MutLLN40 N131C R162E/R266E/R316E (UniProt P23367 1-349, N131C;R162E;R266E;R316E). Nature of the data set: fluorescence polarization; 50 mM KCl; binding completely abolished; SPR: 25 mM Hepes pH 7.5, 150 mM KCl, 5 mM MgCl2, 1 mM DTT, 0.05% Tween-20, 1 mM ATP (+20% glycerol for MutL-MutS assay); FP: same but 50 mM KCl, no ATP (+10% glycerol for full-length MutL); stopped-flow: 150 mM KCl, 10 uM ADP +/- 1 mM ATP, 15 C; FRET: 25 mM Hepes pH 7.2, 150 mM KCl, 5 mM MgCl2. Particulars: protein: recombinant; tags: His; label: 5' TAMRA; blunt.

B1: 100-bp G:T mismatch DNA (dsDNA)
DNA 1: AAACAGGCTTAGGCTGGAGCTGAAGCTTAGCTTAGGATCATCGAGGATCGAGCTCGGTGCAATTCAGCGGTACCCAATTCGCCCTATAGGCATCCAGGTT
DNA 2: AACCTGGATGCCTATAGGGCGAATTGGGTACCGCTGAATTGCACCGAGCTTGATCCTCGATGATCCTAAGCTAAGCTTCAGCTCCAGCCTAAGCCTGTTT
As for B1, the binding result with MutLLN40 N131C is listed as “no binding”; in the data set with MutSΔC800 D246C [1], “binds”; with MutS WT;MutL WT, “binds”; with MutS WT, “binds”.

B2: 45-bp G:T mismatch DNA (dsDNA)
DNA 1: GTCATCCTCGTCTCAAGCTGCCAGGCACCAGTGTCAGCGTCCTAT
DNA 2: ATAGGACGCTGACACTGGTGCTTGGCAGCTTGAGACGAGGATGAC
Regarding B2, the binding result with MutSΔC800 D246C [2] and with MutSΔC800 D246C;MutL WT was “binds” each time.

B3: 41-bp G:T mismatch DNA (dsDNA)
DNA 1: ATAGGACGCTGACACTGGTGCTTGGCAGCTTCTAATTCGAT
DNA 2: ATCGAATTAGAAGCTGCCAGGCACCAGTGTCAGCGTCCTAT
With B3, in the data set with MutSΔC800 D246C [3], the binding result is reported as “binds”.

B4: 41-bp homoduplex, TAMRA (dsDNA)
DNA 1: B3 DNA 1
DNA 2: B3 DNA 2 with G20A
For the molecule B4, the binding result in data set [4] is listed as “no binding”.
